Reference: IntAct's records for PubMed 16407301

B1: Mitogen-activated protein kinase kinase kinase 3 (Homo sapiens), Q99759 (parent)
chain: MDEQEALNSIMNDLVALQMNRRHRMPGYETMKNKDTGHSNRQSDVRIKFEHNGERRIIAFSRPVKYEDVEHKVTTVFGQPLDLHYMNNELSILLKNQDDLDKAIDILDRSSSMKSLRILLLSQDRNHNSSSPHSGVSRQVRIKASQSAGDINTIYQPPEPRSRHLSVSSQNPGRSSPPPGYVPERQQHIARQGSYTSINSEGEFIPETSEQCMLDPLSSAENSLSGSCQSLDRSADSPSFRKSRMSRAQSFPDNRQEYSDRETQLYDKGVKGGTYPRRYHVSVHHKDYSDGRRTFPRIRRHQGNLFTLVPSSRSLSTNGENMGLAVQYLDPRGRLRSADSENALSVQERNVPTKSPSAPINWRRGKLLGQGAFGRVYLCYDVDTGRELASKQVQFDPDSPETSKEVSALECEIQLLKNLQHERIVQYYGCLRDRAEKTLTIFMEYMPGGSVKDQLKAYGALTESVTRKYTRQILEGMSYLHSNMIVHRDIKGANILRDSAGNVKLGDFGASKRLQTICMSGTGMRSVTGTPYWMSPEVISGEGYGRKADVWSLGCTVVEMLTEKPPWAEYEAMAAIFKIATQPTNPQLPSHISEHGRDFLRRIFVEARQRPSAEELLTHHFAQLMY

Variants of: B1
Conditions: with mk03_human MAPK3, P27361
Sequence of mk03_human MAPK3, P27361 (P27361 whole entry): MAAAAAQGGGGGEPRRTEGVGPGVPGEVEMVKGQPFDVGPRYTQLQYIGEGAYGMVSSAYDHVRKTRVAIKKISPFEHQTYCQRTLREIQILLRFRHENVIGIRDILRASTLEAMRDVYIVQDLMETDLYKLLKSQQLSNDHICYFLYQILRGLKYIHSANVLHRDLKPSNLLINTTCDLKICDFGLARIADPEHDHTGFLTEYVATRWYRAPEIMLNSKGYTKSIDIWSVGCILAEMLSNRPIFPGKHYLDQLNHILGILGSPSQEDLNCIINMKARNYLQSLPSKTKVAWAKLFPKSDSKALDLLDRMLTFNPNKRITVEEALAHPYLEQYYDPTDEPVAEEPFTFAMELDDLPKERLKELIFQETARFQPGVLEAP

| effect of a mutation on the interaction | Variant |
| --- | --- |
| disrupting interaction | K391M |
| disrupting interaction | S526A |
| disrupting interaction | T530A |
